From article PMC7901536 (Arteriosclerosis, thrombosis, and vascular biology, 2021)

B1: fibrinogen X-fragment (domain or fragment)
chain 1: ADSGEGDFLAEGGGVRGPRVVERHQSACKDSDWPFCSDEDWNYKCPSGCRMKGLIDEVNQDFTNRINKLKNSLFEYQKNNKDSHSLTTNIMEILRGDFSSANNRDNTYNRVSEDLRSRIEVLKRKVIEKVQHIQLLQKNVRAQLVDMKRLEVDIDIKIRSCRGSCSRALAREVDLKDYEDQQKQLEQVIAKDLLPSRDRQHLPLIKMKPVPDLVPGNFK
chain 2: QGVNDNEEGFFSARGHRPLDKKREEAPSLRPAPPPISGGGYRARPAKAAATQKKVERKAPDAGGCLHADPDLGVLCPTGCQLQEALLQQERPIRNSVDELNNNVEAVSQTSSSSFQYMYLLKDLWQKRQKQVKDNENVVNEYSSELEKHQLYIDETVNSNIPTNLRVLRSILENLRSKIQKLESDVSAQMEYCRTPCTVSCNIPVVSGKECEEIIRKGGETSEMYLIQPDSSVKPYRVYCDMNTENGGWTVIQNRQDGSVDFGRKWDPYKQGFGNVATNTDGKNYCGLPGEYWLGNDKISQLTRMGPTELLIEMEDWKGDKVKAHYGGFTVQNEANKYQISVNKYRGTAGNALMDGASQLMGENRTMTIHNGMFFSTYDRDNDGWLTSDPRKQCSKEDGGGWWYNRCHAANPNGRYYWGGQYTWDMAKHGTDDGVVWMNWKGSWYSMRKMSMKIRPFFPQQ
chain 3: YVATRDNCCILDERFGSYCPTTCGIADFLSTYQTKVDKDLQSLEDILHQVENKTSEVKQLIKAIQLTYNPDESSKPNMIDAATLKSRKMLEEIMKYEASILTHDSSIRYLQEIYNSNNQKIVNLKEKVAQLEAQCQEPCKDTVQIHDITGKDCQDIANKGAKQSGLYFIKPLKANQQFLVYCEIDGSGNGWTVFQKRLDGSVDFKKNWIQYKEGFGHLSPTGTTEFWLGNEKIHLISTQSAIPYALRVELEDWNGRTSTADYAMFKVGPEADKYRLTYAYFAGGDAGDAFDGFDFGDDPSDKFFTSHNGMQFSTWDNDNDKFEGNCAEQDGSGWWMNKCHAGHLNGVYYQGGTYSKASTPNGYDNGIIWATWKTRWYSMKKTTMKIIPFNRLTIGEGQQHHLGGAK
modifications: not checked
B2: fibrinogen E-fragment (domain or fragment)
chain 1: VVERHQSACKDSDWPFCSDEDWNYKCPSGCRMKGLIDEVNQDFTNRINKLKNSLFEYQK
chain 2: KVERKAPDAGGCLHADPDLGVLCPTGCQLQEALLQQERPIRNSVDELNNNVEAVSQTSSSSFQYMYLLK
chain 3: YVATRDNCCILDERFGSYCPTTCGIADFLSTYQTKVDKDLQSLEDILHQVENK
B3: fibrinogen D-fragment (domain or fragment)
chain 1: VSEDLRSRIEVLKRKVIEKVQHIQLLQKNVRAQLVDMKRLEVDIDIKIRSCRGSCSRALAREVDLKDYEDQQKQLEQVIAKDLLPSR
chain 2: DNENVVNEYSSELEKHQLYIDETVNSNIPTNLRVLRSILENLRSKIQKLESDVSAQMEYCRTPCTVSCNIPVVSGKECEEIIRKGGETSEMYLIQPDSSVKPYRVYCDMNTENGGWTVIQNRQDGSVDFGRKWDPYKQGFGNVATNTDGKNYCGLPGEYWLGNDKISQLTRMGPTELLIEMEDWKGDKVKAHYGGFTVQNEANKYQISVNKYRGTAGNALMDGASQLMGENRTMTIHNGMFFSTYDRDNDGWLTSDPRKQCSKEDGGGWWYNRCHAANPNGRYYWGGQYTWDMAKHGTDDGVVWMNWKGSWYSMRKMSMKIRPFFPQQ
chain 3: KMLEEIMKYEASILTHDSSIRYLQEIYNSNNQKIVNLKEKVAQLEAQCQEPCKDTVQIHDITGKDCQDIANKGAKQSGLYFIKPLKANQQFLVYCEIDGSGNGWTVFQKRLDGSVDFKKNWIQYKEGFGHLSPTGTTEFWLGNEKIHLISTQSAIPYALRVELEDWNGRTSTADYAMFKVGPEADKYRLTYAYFAGGDAGDAFDGFDFGDDPSDKFFTSHNGMQFSTWDNDNDKFEGNCAEQDGSGWWMNKCHAGHLNGVYYQGGTYSKASTPNGYDNGIIWATWKTRWYSMKKTTMKIIPFNRLTIGEGQQHHLGGAK
modifications: not checked
B4: D-dimer (degradation product of FXIIIa cross-linked fibrin) (domain or fragment)
chain 1: B3 chain 1
chain 2: B3 chain 2
chain 3: B3 chain 3
modifications: cross-linked by FXIIIa (chain and residues not stated)

Assays:
[1] = biological target: non-polymerising (NP) fibrin (UniProt P02671); assay: SPR; NP-fibrinogen immobilised, then converted to fibrin with thrombin; GPVI dimer as analyte (additional SPR experiments in the supplemental methods)
[2] = biological target: recombinant non-polymerising (NP) fibrinogen (UniProt P02671); assay: as above
[3] = biological target: recombinant fibrinogen αC fragment, C-terminal globular domain (Aα 368-610); assay: SPR; biotinylated αC fragments Aα 221-391 (80 RU), 368-610 (120 RU), 221-610 (180 RU) on SA chip; dimeric GPVI as analyte up to 20 μM; 25 °C; 1:1 Langmuir
[4] = biological target: recombinant fibrinogen αC fragment, full-length (Aα 221-610); assay: as above
[5] = biological target: monomeric GPVI (His-tagged GPVI extracellular domain) (UniProt Q9HCN6); assay: MST; CRP-XL titrated into FITC-labelled GPVI monomer or dimer; read-out is the fall of the initial fluorescence (quenching); 1:1 model; hypothetical KD on the monomeric-equivalent molar concentration of CRP-XL
[6] = biological target: dimeric GPVI (GPVI extracellular domain fused by IgG-Fc) (UniProt Q9HCN6); assay: as above
[7] = biological target: T1, monomeric GPVI (His-tagged GPVI extracellular domain), Q9HCN6; assay: SPR; monomeric and dimeric GPVI immobilised as ligands; X-, D-, E-fragment or D-dimer as analytes up to 40 μM; 1:1 Langmuir
T1 chain: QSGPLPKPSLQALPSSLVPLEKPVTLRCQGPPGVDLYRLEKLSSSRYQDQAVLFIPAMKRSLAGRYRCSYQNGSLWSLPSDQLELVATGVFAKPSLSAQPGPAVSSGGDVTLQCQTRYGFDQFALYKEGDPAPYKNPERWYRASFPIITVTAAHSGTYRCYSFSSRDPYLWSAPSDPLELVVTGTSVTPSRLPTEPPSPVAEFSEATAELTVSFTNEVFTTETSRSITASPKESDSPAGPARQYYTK

[8] = biological target: T2, dimeric GPVI (GPVI extracellular domain fused by IgG-Fc), Q9HCN6; assay: as above
T2 chain: T1 chain

[9] = biological target: T2, dimeric GPVI (GPVI extracellular domain …); assay: MST; fibrin(ogen) or fragments titrated into FITC-labelled GPVI monomer or dimer (10 μl of 50 nM mixed 1:1); 20 mM HEPES pH 7.5, 50 mM NaCl; 23 °C; 1:1 model
[10] = biological target: T3, dimeric GPVI (GPVI extracellular domain fused by IgG-Fc) (UniProt Q9HCN6 21-267, FITC label (in MST); biotin via NHS-LC-biotin (when immobilised in SPR)); assay: SPR; monomeric and dimeric GPVI immobilised as ligands; X-, D-, E-fragment or D-dimer as analytes up to 40 μM; 1:1 Langmuir; settings: both partners purified
T3 sequence (looked up): T1 chain

[11] = biological target: T3, dimeric GPVI (GPVI extracellular domain …); assay: MST; fibrin(ogen) or fragments titrated into FITC-labelled GPVI monomer or dimer (10 μl of 50 nM mixed 1:1); 20 mM HEPES pH 7.5, 50 mM NaCl; 23 °C; 1:1 model; settings: both partners purified

Molecule | Kd [8] [µM] | Kd [9] [µM] | Kd [10] [µM] | Kd [11] [µM] | other results
dimeric GPVI (GPVI extracellular domain fused by IgG-Fc) (from UniProt Q9HCN6 21-267) (Fc fusion) | – | – | – | – | Kd [1]: 0.086 µM; Kd [2]: 0.127 µM; Kd [3]: 2.3 µM; Kd [4]: 0.604 µM
cross linked collagen-related peptide (CRP-XL) | – | – | – | – | Kd [5]: 5 µM; Kd [6]: 0.603 µM
B1 | 9 | > 2 | – | – | Kd [7]: > 1000 µM
B2 | – | – | 51 | > 20 | –
B3 | 26 | > 20 | – | – | –
B4 | – | – | 28 | > 20 | –
